Experimental data: patent US20120201794A1

Assays:
[1] = biological target: C46 protein (membrane anchored fusion inhibitor derived from the C-terminal heptad repeat of HIV gp41 fused with a human immunoglobulin hinge region and a CD34 transmembrane domain) (HIV gp41 heptad repeat fused to human immunoglobulin hinge and CD34 transmembrane domain); experiment: flow cytometry, 2F5 staining of Molt4/CCR5 cells transduced with the C46 lentiviral construct (untransduced background 344.6)
[2] = biological target: C46 protein (membrane anchored fusion inhibitor derived from the C-terminal heptad repeat of HIV gp41 fused with a human immunoglobulin hinge region and a CD34 transmembrane domain) (HIV gp41 heptad repeat fused to human immunoglobulin hinge and CD34 transmembrane domain); experiment: flow cytometry, 2F5 staining of Molt4/CCR5 cells transduced with the sh5/C46 lentiviral construct (untransduced background 344.6)

With 2F5 antibody the MFI [1] was 1450 and the MFI [2] was 1170.
